In publication PMC8431786, “In Search of Monocot Phosphodiesterases: Identification of a Calmodulin Stimulated Phosphodiesterase from Brachypodium distachyon” (International Journal of Molecular Sciences, 2021) one finds Km data, which are given here for one protein.

Substrate in the data set: [H][C@@]12COP(=O)(O)O[C@@]1([H])[C@@H](O)[C@H](n1cnc3c(=O)[nH]c(N)nc31)O2
Nature of the data set: LC-MS/MS of GMP formed, Michaelis-Menten fit. Format: biochemical, Brachypodium distachyon. The settings on record: 3 mM Tris-HCl pH 8.0, 37 °C, 25 min, 0.5 mM MgCl2 and MnCl2, 0.1% 2-mercaptoethanol, no calmodulin.

B1: BDPDE1 (Brachypodium distachyon) (protein)
chain: MWPASKTQMHMFCLCRLDQPSCLVIGSARSINASTPKELSQNASSREIENRLLRVRRSATTGRSEPLARFNHPIQFQHARPPPAPAHGAHEGKKMAAAAVRRAEELVEREMSGRDASHDAAHALRVRDLALSLAAEQGLSSPDRLLIVELAALLHDIGDYKYTKDNMEDMSIVERFLQDVGLEKGQREEIVSIITGMGFKNEVSGKAAEPTLEFAVVQDADRLDAIGAIGVARCFTYGGSKNSALHDPKVLPRDNLSKEKYMSKEKQTSINHFHEKLFKLKDMMKTEAGKRRAEKRHKFMEDFVAEFYEEWSGRA
notes: GST-BDPDE1 fusion (pGEX-6P-2, N-terminal GST kept), cDNA from leaf and stalk RNA, E. coli BL21(DE3) pLysS, glutathione-Sepharose
What is called Km is the substrate concentration at which the rate is half of its maximum. For the protein B1, the Km was 113.3 µM.
